Residue numbers refer to the chain shown, from its start.
T1: soluble Atg1 (Atg1 complex purified from yeast, released from the beads by TEV protease cleavage) (S. cerevisiae, UniProt P53104 1-897)
T1 construct: Atg1 serine-threonine kinase, S. cerevisiae; only Atg1 was detected (anti-Atg1 blot) in the pull-down; also called soluble Atg1 kinase; soluble Atg1 complex
T1 sequence (looked up): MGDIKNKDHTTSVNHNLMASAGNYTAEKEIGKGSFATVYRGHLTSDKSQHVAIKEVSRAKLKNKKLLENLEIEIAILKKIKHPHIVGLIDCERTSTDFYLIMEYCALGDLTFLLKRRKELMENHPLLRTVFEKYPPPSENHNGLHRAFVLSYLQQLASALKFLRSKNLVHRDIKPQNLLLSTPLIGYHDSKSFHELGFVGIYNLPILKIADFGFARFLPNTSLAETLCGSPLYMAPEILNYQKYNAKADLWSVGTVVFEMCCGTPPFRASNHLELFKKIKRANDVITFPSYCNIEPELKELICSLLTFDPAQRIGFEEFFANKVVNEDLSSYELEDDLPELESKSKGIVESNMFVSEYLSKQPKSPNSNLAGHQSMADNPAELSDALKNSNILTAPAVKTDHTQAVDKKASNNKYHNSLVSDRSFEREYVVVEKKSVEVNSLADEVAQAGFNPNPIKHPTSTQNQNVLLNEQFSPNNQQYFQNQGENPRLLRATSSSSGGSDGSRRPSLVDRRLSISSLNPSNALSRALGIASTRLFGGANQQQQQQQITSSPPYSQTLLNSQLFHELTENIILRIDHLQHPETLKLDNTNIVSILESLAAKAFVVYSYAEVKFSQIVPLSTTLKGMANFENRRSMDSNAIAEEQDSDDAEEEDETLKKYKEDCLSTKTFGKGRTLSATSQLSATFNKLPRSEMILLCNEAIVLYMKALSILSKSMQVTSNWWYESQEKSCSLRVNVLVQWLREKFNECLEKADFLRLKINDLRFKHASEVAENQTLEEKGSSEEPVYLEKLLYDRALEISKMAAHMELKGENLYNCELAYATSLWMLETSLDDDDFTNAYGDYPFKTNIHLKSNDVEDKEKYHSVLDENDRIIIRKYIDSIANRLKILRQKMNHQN

B1: GST-Atg9^757–997 wild-type (domain or fragment, S. cerevisiae, UniProt Q12142 757-997, looked up)
chain: RENSEYVDGLGYVCKYAMFNMKNIDGEDTHSMDEDSLTKKIAVNGSHTLNSKRRSKFTAEDHSDKDLANNKMLQSYVYFMDDYSNSENLTGKYQLPAKKGYPNNEGDSFLNNKYSWRKQFQPGQKPELFRIGKHALGPGHNISPAIYSTRNPGKNWDNNNNGDDIKNGTNNATAKNDDNNGNNDHEYVLTESFLDSGAFPNHDVIDHNKMLNSNYNGNGILNKGGVLGLVKEYYKKSDVGR
notes: Atg9, S. cerevisiae, C-terminal fragment, amino acids 757-997; also called C-terminal fragment of Atg9 (amino acids 757–997); recombinant Atg9 C-terminal fragment; source: E. coli, immobilized on beads
B2: GST-Atg9^757–997 4A mutant (domain or fragment, S. cerevisiae, UniProt Q12142 757-997, looked up)
chain: B1 chain with S46A, S75A, S192A, S213A
notes: Atg9, S. cerevisiae, C-terminal fragment, amino acids 757-997, 4A mutant; source: E. coli, immobilized on beads

Target: T1, soluble Atg1 (Atg1 complex purified …)
Assay: pull-down; GST fusion proteins from E. coli immobilized on beads, incubated with soluble Atg1; bound protein by anti-Atg1 western blotting
Details: both partners purified

Binder | binding result
B1 | binds
B2 | binds
